We go through six molecules from article PMC11260122.

The data set has as its target T1, PTK7 (His tag) (UniProt Q13308 31-704).
T1 sequence: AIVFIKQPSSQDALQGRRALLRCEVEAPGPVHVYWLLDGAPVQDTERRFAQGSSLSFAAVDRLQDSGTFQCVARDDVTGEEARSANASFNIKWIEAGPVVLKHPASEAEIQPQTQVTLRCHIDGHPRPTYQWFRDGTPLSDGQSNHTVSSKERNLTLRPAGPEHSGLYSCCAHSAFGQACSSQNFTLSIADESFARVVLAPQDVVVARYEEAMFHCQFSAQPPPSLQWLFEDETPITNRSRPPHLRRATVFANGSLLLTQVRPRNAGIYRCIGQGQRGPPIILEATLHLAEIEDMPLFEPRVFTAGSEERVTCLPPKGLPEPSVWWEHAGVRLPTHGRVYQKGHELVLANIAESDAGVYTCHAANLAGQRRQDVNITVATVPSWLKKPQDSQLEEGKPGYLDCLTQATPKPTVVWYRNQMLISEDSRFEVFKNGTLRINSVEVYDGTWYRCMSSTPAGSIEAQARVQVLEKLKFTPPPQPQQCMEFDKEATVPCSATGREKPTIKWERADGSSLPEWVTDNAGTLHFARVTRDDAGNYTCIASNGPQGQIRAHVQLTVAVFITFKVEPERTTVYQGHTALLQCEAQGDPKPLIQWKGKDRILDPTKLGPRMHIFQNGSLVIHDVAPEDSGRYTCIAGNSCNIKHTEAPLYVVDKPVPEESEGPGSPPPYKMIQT
The experiment in a line: SPR. (In general: Surface plasmon resonance follows binding to a sensor surface in real time, without labels.)

On to ATCTAACTTCTGAGCCGCCGGGAAAATACTGTACGGTTAGA (structured_DNA) [G9T·C13A], for which the binding result is listed as “no binding”.
Regarding ATCTAACTGGTCCGCCGCCGGGAAAATACTGTACGGTTAGA (structured_DNA) [C10G·G12C], the binding result is listed as “no binding”.
Under ATCTAACTCCTGGGCCGCCGGGAAAATACTGTACGGTTAGA (structured_DNA) [G9C·C13G] stands “no binding”; under ATCTAACTACTGTGCCGCCGGGAAAATACTGTACGGTTAGA (structured_DNA) [G9A·C13T], “no binding”; under ATCTAACTGATTCGCCGCCGGGAAAATACTGTACGGTTAGA (structured_DNA) [C10A·G12T], “no binding”.
To ATCTAACTGTTACGCCGCCGGGAAAATACTGTACGGTTAGA (structured_DNA) [C10T·G12A] belongs “no binding”.
